This passage reports koff and Kd results from paper PMC7868338, “Identification of Functional Interactome of Colistin Resistance Protein MCR-1 in Escherichia coli” (Frontiers in Microbiology, 2020).

In test [1] the target is T1, SspB protein (SPR analyte) (E. coli, UniProt P0AFZ3 1-165).
T1 chain: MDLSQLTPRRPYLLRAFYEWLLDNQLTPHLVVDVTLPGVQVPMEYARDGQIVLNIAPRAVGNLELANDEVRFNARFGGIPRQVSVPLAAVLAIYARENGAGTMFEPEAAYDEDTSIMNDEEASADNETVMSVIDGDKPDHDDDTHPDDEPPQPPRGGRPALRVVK
As to the kind of experiment: SPR. Background: Surface plasmon resonance follows binding to a sensor surface in real time, without labels.

Test [2] deals with T2, MCR-1 full-length protein (E. coli (strain SHP45), UniProt A0A0R6L508 1-541).
T2 construct: MCR-1, phosphoethanolamine transferase; gene amplified from E. coli strain SHP45; 541 amino acids; also called His6-MCR-1; source: E. coli BL21 (DE3) (pET28a-mcr-1), IPTG-induced; in lysate (1% DDM) for the Co-IP; purified (Ni-NTA) for SPR
T2 sequence: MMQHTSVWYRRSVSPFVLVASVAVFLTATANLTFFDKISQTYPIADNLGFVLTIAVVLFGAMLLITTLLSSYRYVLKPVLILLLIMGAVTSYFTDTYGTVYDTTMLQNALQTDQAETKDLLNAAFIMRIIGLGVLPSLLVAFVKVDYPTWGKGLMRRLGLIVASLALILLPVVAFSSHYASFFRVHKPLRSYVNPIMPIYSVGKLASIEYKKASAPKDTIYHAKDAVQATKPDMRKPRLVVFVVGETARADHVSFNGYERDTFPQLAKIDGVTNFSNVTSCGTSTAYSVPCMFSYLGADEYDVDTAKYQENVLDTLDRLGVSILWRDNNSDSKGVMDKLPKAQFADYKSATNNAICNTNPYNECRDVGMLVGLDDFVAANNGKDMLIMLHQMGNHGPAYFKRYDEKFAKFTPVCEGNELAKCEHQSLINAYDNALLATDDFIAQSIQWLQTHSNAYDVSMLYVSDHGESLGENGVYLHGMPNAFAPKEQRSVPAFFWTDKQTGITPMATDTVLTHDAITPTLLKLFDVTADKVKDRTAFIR
Put plainly: SPR; Reichert 4SPR; MCR-1 or MCR-1-200 in PBS directly immobilised on a Planar Mixed SAM chip; SspB 0.156-5 μM (twofold dilutions) in PBST pH 7.4, 0.05% Tween-20. The conditions noted are these: both partners purified.

Test [3] deals with T3, MCR-1-200 catalytic domain protein (E. coli (strain SHP45), UniProt A0A0R6L508 201-541).
T3 construct: catalytic domain of MCR-1, 341 amino acids; also called catalytic domain of MCR-1; MCR-1 catalytic protein; source: E. coli BL21 (DE3) (pET28a-mcr-1-200), IPTG-induced; in lysate (1% DDM) for the Co-IP; purified (Ni-NTA) for SPR
T3 sequence: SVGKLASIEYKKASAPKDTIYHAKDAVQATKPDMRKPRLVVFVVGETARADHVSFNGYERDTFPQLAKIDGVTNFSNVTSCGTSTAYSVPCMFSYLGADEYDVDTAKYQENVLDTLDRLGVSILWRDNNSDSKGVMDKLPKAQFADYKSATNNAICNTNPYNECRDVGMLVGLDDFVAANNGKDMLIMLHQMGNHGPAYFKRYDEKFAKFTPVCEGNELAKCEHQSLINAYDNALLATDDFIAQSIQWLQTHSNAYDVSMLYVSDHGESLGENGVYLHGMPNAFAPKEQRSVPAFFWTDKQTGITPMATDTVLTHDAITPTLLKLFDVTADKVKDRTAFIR
The test is described as above. To be noted: both partners purified.

B1: MCR-1 full-length protein (enzyme)
chain: MMQHTSVWYRRSVSPFVLVASVAVFLTATANLTFFDKISQTYPIADNLGFVLTIAVVLFGAMLLITTLLSSYRYVLKPVLILLLIMGAVTSYFTDTYGTVYDTTMLQNALQTDQAETKDLLNAAFIMRIIGLGVLPSLLVAFVKVDYPTWGKGLMRRLGLIVASLALILLPVVAFSSHYASFFRVHKPLRSYVNPIMPIYSVGKLASIEYKKASAPKDTIYHAKDAVQATKPDMRKPRLVVFVVGETARADHVSFNGYERDTFPQLAKIDGVTNFSNVTSCGTSTAYSVPCMFSYLGADEYDVDTAKYQENVLDTLDRLGVSILWRDNNSDSKGVMDKLPKAQFADYKSATNNAICNTNPYNECRDVGMLVGLDDFVAANNGKDMLIMLHQMGNHGPAYFKRYDEKFAKFTPVCEGNELAKCEHQSLINAYDNALLATDDFIAQSIQWLQTHSNAYDVSMLYVSDHGESLGENGVYLHGMPNAFAPKEQRSVPAFFWTDKQTGITPMATDTVLTHDAITPTLLKLFDVTADKVKDRTAFIR
B1 yielded a koff in test [1] of 0.325 s⁻¹.

B2: MCR-1-200 catalytic domain protein (domain or fragment)
chain: SVGKLASIEYKKASAPKDTIYHAKDAVQATKPDMRKPRLVVFVVGETARADHVSFNGYERDTFPQLAKIDGVTNFSNVTSCGTSTAYSVPCMFSYLGADEYDVDTAKYQENVLDTLDRLGVSILWRDNNSDSKGVMDKLPKAQFADYKSATNNAICNTNPYNECRDVGMLVGLDDFVAANNGKDMLIMLHQMGNHGPAYFKRYDEKFAKFTPVCEGNELAKCEHQSLINAYDNALLATDDFIAQSIQWLQTHSNAYDVSMLYVSDHGESLGENGVYLHGMPNAFAPKEQRSVPAFFWTDKQTGITPMATDTVLTHDAITPTLLKLFDVTADKVKDRTAFIR
B2 came in with a koff in test [1] of 0.0106 s⁻¹.

B3: SspB protein (SPR analyte) (natural protein)
chain: MDLSQLTPRRPYLLRAFYEWLLDNQLTPHLVVDVTLPGVQVPMEYARDGQIVLNIAPRAVGNLELANDEVRFNARFGGIPRQVSVPLAAVLAIYARENGAGTMFEPEAAYDEDTSIMNDEEASADNETVMSVIDGDKPDHDDDTHPDDEPPQPPRGGRPALRVVK
notes: Stringent starvation protein B, E. coli; also called Stringent starvation protein B
Consider B3, for which the Kd in test [2] came to 140 µM; in test [3], 5.13 µM.

A word on the koff: it is the rate constant with which the complex falls apart. One may read the Kd as a measure of binding affinity in units of concentration.
